Read-outs that look alike come from different tables or passages of the source.
How the values were obtained:
[1] = target: peripheral node addressin; experiment: parallel plate laminar flow chamber, duration of transient cell tethers
[2] = target: peripheral node addressin; experiment: as above; remark: listed apart in the source

B1: L-selectin (receptor)
chain: WTYHYSEKPMNWQRARRFCRDNYTDLVAIQNKAEIEYLEKTLPFSRSYYWIGIRKIGGIWTWVGTNKSLTEEAENWGDGEPNNKKNKEDCVEIYIKRNKDAGKWNDDACHKLKAALCYTASCQPWSCSGHGECVEIINNYTCNCDVGYYGPQCQFVIQCEPLEAPELGTMDCTHPLGNFSFSSQCAFSCSEGTNLTGIEETTCGPFGNWSSPEPTCQVIQCEPLSAPDLGIMNCSHPLASFSFTSACTFICSEGTELIGKKKTICESSGIWSNPSPICQKLDKSFSMIKEGDYNPLFIPVAVMVTAFSGLAFIIWLARRLKKGKKSKRSMNDPY
transient tether lifetime [1]: 0.057 s
transient tether lifetime [2]: 0.087 s

From PMC2148129
